We go through one molecule from patent US20110123447A1 (UNIVERSITY OF ZURICH, published 2011).

“And” between values parts separate entries of the source, which are not always exact repeats. Identical values can stand only once.

Experiment [1] addresses T1, NY-ESO-1 as expressed in NY-ESO-1-positive mamma carcinoma tissue sections and in the cell line SK-MEL-37 (human, UniProt P78358 1-180).
T1 construct: whole, on cells; The antigen is intracellular; It was detected in fixed sections or permeabilised cells, not on the cell surface; also called NY-ESO-1-positive tissue; NY-ESO-1-positive cell line SK-MEL-37
Description: immunohistochemistry on NY-ESO-1-positive tissue sections. On the procedure:
Immunohistochemistry was performed on formalin-fixed, paraffin-embedded tissue. Heat-based antigen retrieval was applied to all slides. Non-specific fluorescence was blocked using polyclonal rabbit anti-human IgG (Dako, Baar, Switzerland) for 30 min at room temperature followed by a second block in 1% of low fat milk (Rapilait, Migros, Switzerland) for 10 min. Primary antibody or B cell conditioned medium was incubated overnight at 4° C. […] As positive control for the presence of NY-ESO-1 antigen a mouse anti-NY-ESO-1 monoclonal antibody (Zymed, South San Francisco, USA) was used.

For experiment [2], the target named is T2, NY-ESO-1 peptide spanning amino acids 1-20 (human, UniProt P78358 1-20).
T2 construct: range 1-20; also called adjacent peptide 1-20
T2 peptide (looked up): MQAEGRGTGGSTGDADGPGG
Description: epitope mapping ELISA on coated overlapping peptides. On the procedure: (§1) 20mer peptides spanning the entire NY-ESO-1 protein with 10 aa overlaps shared by each adjacent peptides (Peptides&Elephants, Nuthetal, Germany) were used to coat Maxisorp ELISA plates (Nunc, Rochester, N.Y.). Human recombinant antibody Manhattan or patient serum (diluted 1:500 in PBS) was detected using horseradish peroxidase-conjugated Goat anti-human IgG+IgM (Jackson ImmunoResearch).
(§2) To identify the epitope recognized by Manhattan on NY-ESO-1 ELISA was performed using overlapping peptides spanning the complete NY-ESO-1 protein. […] This epitope, among others was also recognized by antibodies contained in serum of patient C1 (FIG. 3B).
For orientation: An ELISA detects its analyte on a solid surface through an enzyme-linked reagent.

Experiment [3] concerns the target T3, NY-ESO-1 peptide spanning amino acids 21-40 (human, UniProt P78358 21-40).
T3 construct: range 21-40; also called adjacent peptide 21-40
T3 peptide (looked up): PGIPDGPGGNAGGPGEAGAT
Described as above. On the procedure: as §1, §2

Experiment [4] concerns the target T4, NY-ESO-1 11-30 peptide (human).
T4 construct: also called peptide spanning amino acids 11 to 30 of NY-ESO-1
T4 peptide: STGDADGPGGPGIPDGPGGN
Description: competition ELISA: soluble NY-ESO-1 11-30 peptide against plate bound peptide. On the procedure: The avidity of Manhattan was determined by competition ELISA using increasing concentrations of soluble NY-ESO-1₁₁₋₃₀ peptide to compete for the plate bound peptide. As depicted in FIG. 3C, the antigen-binding equilibrium dissociation constant (KD) of the interaction of Manhattan with its cognate peptide was in the lower nanomolar range.

Experiment [5] concerns the target T4, NY-ESO-1 11-30 peptide. Description: saturation ELISA on coated NY-ESO-1 11-30 peptide.
Experiment [6] deals with T5, full length recombinant NY-ESO-1 protein (human, UniProt P78358 1-180).
T5 construct: mature; The form was set to 'mature' to stand for full length
The experiment is described as follows: ELISA on coated recombinant NY-ESO-1, supernatant of transfected 293 HEK cells.

B1: human monoclonal antibody Manhattan (recombinant human antibody 12D7 clone No. 4) (antibody, human IgG1, V domains shown)
VH: QVQLVQSGGGVVRPGGSLRLSCAASGFSFIDYGMSWVRQVPGKGLEWVAGMNWSGDKKGHAESVKGRFIISRDNAKNTLYLEMSSLRVEDTALYFCARGEYSNRFDPRGRGTLVTVSS
VL: DIVMTQTPLSLPVTLGQPASLSCRSSQSLVFTDGNTYLNWFQQRPGQSPRRLIYKVSSRDPGVPDRFSGTGSGTDFTLEISRVEAEDIGVYYCMQGTHWPPIFGQGTKVEIK
notes: They were cloned into vectors with the constant regions of human IgG1 heavy chain and human kappa light chain and expressed in 293 HEK cells; also called 12D7 clone number 4; 12D7.4
As for B1, the binding result in experiment [1] is listed as “binds”; in experiment [2], “no binding”; in experiment [3], “no binding”; in experiment [6], “binds”. This molecule registered a Kd in the experiment with NY-ESO-1 11-30 peptide [4] of 100 pM. Further, in the experiment with NY-ESO-1 11-30 peptide [5], the concentration for a half-maximal effect (EC50) was 1 nM and 0.15 µg/mL.

In general, Kd refers to the free concentration of one partner at which half of the binding sites on the other are occupied at equilibrium, for simple one-to-one binding. What is called EC50 is the midpoint of the concentration-response curve.
